This data set deals with the molecule itself. Nature of the data set: SDS-PAGE.

Regarding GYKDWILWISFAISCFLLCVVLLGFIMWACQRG [TMD peptide of HA2 (strain X:31) of influenza virus, unlabeled], the binding result is “binds”.

These data come from publication PMC2267159 (BMC Biology, 2008).
